Results on 69 sequences are retold here after the domain aggregation screens of Martell et al. (2025).

The nature of this data set: soluble fraction after stress (log2 fold change); higher = more stays soluble; pooled small domains, quantitative proteomics. The conditions noted are these: stress: pH 4. The method in brief:
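Aggregation propensity is read out as the fold change in how much of each domain remains soluble after acid stress. The custom small-domain libraries were pooled, held at pH 4 and analysed with high-throughput quantitative proteomics. On the log2 scale used, higher values mean more of the domain stayed soluble.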

As for “HMGTPEQSAQFEQVLEELKNVPGPVMKAMQRAQDIYGYLPIEIQSRIGQAFGVSLEEVYGIATFYSQFNL”, the “soluble fraction (log2)” value was -2.6.

As to “HMGTQKVQVVNGPINVRSGPGPTFEKIGMVEDQAVYQVVSKKDDWFQISLPGNKTAWVAGWLVKEIK”, the “soluble fraction (log2)” value is -0.0241.

“HMGTRHPLPYAFAKAHTVLLEDDGDRLLLHAAENSGPSALGEILRLYDVDALERETASTLANRIAVAYAG”: the “soluble fraction (log2)” value is 0.163.

Consider “HMGTSGLTIPRFVSLASGTVHMRAGPGVRYPITWIYKRLGTPLMVMAEHEFWRKVRDAEGTEGWMHRSLLS”, for which the “soluble fraction (log2)” value is -0.00785.

Consider “HMGTSIMIIIVKPETKKERVNDLIHWIESQNLRTHLSTGDYSTIIGVIGDTSKLDSELIRGLDIVENVKRV”, for which the “soluble fraction (log2)” value is -1.24.

For “HMGTSMDPPVIIVSDGKLIQKGLEVSGLKKQWLYDLIDRKHMKISDIFLLTADKTGKYNLIKRS”, the “soluble fraction (log2)” value was -0.134.

In the case of “HMGTSQSAVKAILAQLISDENKQKPYSDEALSRLLQQQGIDIARRTVAKYREALNIPPAHQRK”, the “soluble fraction (log2)” value was found to be 0.365.

With “HMGTSRVQSILFDQSQWTINRAVHWLNTHHFISTKIDKTDKYLRFRQFDPNPDSHHATKRTSQGITFILE”, the “soluble fraction (log2)” value is no less than 0.43.

Regarding “HMGTTIAMSKLKQVLRWKEEGYSNRKIAQLVGLNKETVNNYISRANADSLSQKELLQLDDFVLDIRLRG”, the “soluble fraction (log2)” value was -0.138.

On to “HMGTTTGKVNATGVNFRTGPSTSYSSMGKLGIDTAVTILGKSGDWYQVKVNSTGKTGYVFAKYITITSVV”, for which the “soluble fraction (log2)” value was -0.434.

For “HMGTVIGMGRITAGGVNFRETEGGGVIEKLERDTLVEVLTVPSVIDTTHWYQVRYNNRTGYVQAPFVQLLG”, the “soluble fraction (log2)” value was determined as 0.176.

“HMGTVKWFNATKGFGFIVPSDGGKDVFVHITAVQKAGLQGLNEGQKVSYEVAMERGKAAATNLR”: the “soluble fraction (log2)” value was -0.259.

As to “HMGTVRFYNKERGFGFVVSDDGESVFLPAKALPDGVSDLSPGTRVDYGAALGKKGSQ”, the “soluble fraction (log2)” value is -0.203.

“HMGVAAPMPGTITDVRVKVGDRVQPRTVVMMLEAMKMENEIFAGRAGVVSQVAVEKGASVNTGDLLISIDP”: the “soluble fraction (log2)” value was 0.325.

Turning to “HMGVAASEVHREKKESSLQWRQSYNVATDQRRQGKTYKEITEFLNGAELKNSKGGTWSISGVRKMLM”, the “soluble fraction (log2)” value is no less than 0.43.

For the sequence “HMGVARGQAQVTTRQHVVQPGETLYQISKQYGVTVAEILRYNADIEDNTVKVGQTLQIPTPLP”, the “soluble fraction (log2)” value is -0.206.

Take “HMGVDMAPESIVGKKGVAATELRPAGKVEIHGQVYDAVSVGMFIKRGTGVKVVRYEAAQIYVEPE”: the “soluble fraction (log2)” value was -0.112.

Take “HMGVEALTPRQREVLALMAQGRSNGWIAAELGLSEKAIVQHTSNIYDMLGLAVDADDHRRVLAVIHYLT”: the “soluble fraction (log2)” value was -0.943.

Regarding “HMGVENDGYVLPRELKKGDTVLIADLGKEATVLSPVDRNGNVEVLAGAAKTRVKLKNLRLIE”, the “soluble fraction (log2)” value was determined as 0.179.

Consider “HMGVEVPRGDGSTVVRVRAGSSLADFAERIGADPAALITVLFRMGEMATVNQSLDEDTFKLLGAELGYDVQ”, for which the “soluble fraction (log2)” value was -0.721.

With “HMGVGIAEAMKHVADEDYGDLSSEFQRIFSAVDGGSTLGDAVRAQMRATSSAGLRRTLSVLAMSVE”, the “soluble fraction (log2)” value was -0.314.

Consider “HMGVGTTDERLAVLNQIASRQTEALEKLGPNNPLVGLGQIRNTLSKMLEISGYPDSNQFFKQVPLDYEPPP”, for which the “soluble fraction (log2)” value is -0.0341.

As to “HMGVIDTLSGPQKAAAILVAIGRPSASRLLKHFNAEDLRKLAGHARTLEPISPLDFEHLVKQFEDSFAEG”, the “soluble fraction (log2)” value was -0.745.

In the case of “HMGVIGADIRALRVSRGWTLSDLAEALDRSVGWLSQVERDVSEPALADIRRIAGIFDLPVSFFFSD”, the “soluble fraction (log2)” value was -1.64.

On to “HMGVLDFSAQLLKHLEMNGGQTPLGDKSPAEEIYAVFGVSKKVFKKAVGDLYRKRLIEISSNGIRMTS”, for which the “soluble fraction (log2)” value turned out to be 0.336.

In the case of “HMGVLGVDALAAAAEVSVDTVRYYQHLGLLEPPRREGRRAVYGPSHLARMGEIRRLAAAGFTLDQIRQLAE”, the “soluble fraction (log2)” value was -1.62.

With “HMGVPTEQQSLIGKSGIAATDLRPSGKVEIDGKRYDAVSNYAGFIAKGTPISVVRYETGQIYVE”, the “soluble fraction (log2)” value turned out to be 0.0721.

Regarding “HMGYDDVIVINGKNETYGFPTKVEDDPVLSLVIKGDRSIDYAEERRLFYVAMTRTKNRVFFVAP”, the “soluble fraction (log2)” value is -0.803.

“HMGYGEQEAEATKYMSLHAIMSADETLSKMYTPENQHKLMTHVMEQNGIKNVKDYLTPPSELP”: the “soluble fraction (log2)” value is -0.443.

For the sequence “HMGYPYDTVTTAKVNLRAKRSTSSDILKKIPEGATVTVKGVTGTFASVDYNGTSGYVKVDYLV”, the “soluble fraction (log2)” value was -0.196.

With “HMGYSSKISELLTKYNMNASELAQKVGVPPTTIYSIIKRDSKKADIEVLIKIAKLFNVPVEYF”, the “soluble fraction (log2)” value was found to be 0.186.

In the case of “HMGYTPGVVIQKSAILEEINQPDLALGMMLEAVKKDSQNLDILNRLVTLLIDQKKNEDAEIYNKKIIT”, the “soluble fraction (log2)” value was determined as 0.187.

Consider “HMHAGMKSWTIQYEKSPIYGSFLMYKDGNIYIQKEDNVVVHFPLDRFSQNDQAILKSRIEKIDQINKSS”, for which the “soluble fraction (log2)” value was -0.0137.

For “HMHAPKIIVLTINPDKIRDVIGPGGKMIKSIVAATGVKMDVEDDGKIHISSSDQKAADEAIRMINEITAEA”, the “soluble fraction (log2)” value came to 0.223.

With “HMHAPLEVGSVVRIEGQKALGTILSISDREAIVALGALKTTIPLKRLHGVSPAEAQRHLRKTTPAQAVR”, the “soluble fraction (log2)” value is 0.0546.

Turning to “HMHAQDTLMTRAGETRTVKILEIGLEEIKYRIWGLDDSPVIVIDKIDVKQIVFSNGEKMTIVQ”, the “soluble fraction (log2)” value was -1.86.

On to “HMHDLTERQREILQTLASGKMALREILSILSQPPSLRTLRDELYHLKRIGLVDTMGYGRGATWFLTQ”, for which the “soluble fraction (log2)” value is -0.13.

For the sequence “HMHDNPLSAQEQRVLDLIAAGKTSKEIASQLFLSDGTVRNYTTSIFNKLNANNRVEAINIAQENGW”, the “soluble fraction (log2)” value stood at 0.123.

Regarding “HMHDPRLPLPGTLLAREFQGRDIVVKVLDNGFEFDGRRYKSLSAIAQEVTGSKWNGFLFFGI”, the “soluble fraction (log2)” value is -0.0393.

Turning to “HMHDWDITTAAKPEKIFELFSDIPVLETGLKHGTVTLLIDHEPYEVTTFRVDGNYTDGRHPDSVAFT”, the “soluble fraction (log2)” value was -0.366.

Consider “HMHGESIPIPNILHKRYADAEQIVNNLRLEIEVTDTGYVRSLPPGAILEQTPGPGERVKSGHIIYVTINAA”, for which the “soluble fraction (log2)” value is -0.0135.

Turning to “HMHGETLAAKRREEIKVRIQNIYDQSEQIFGYRKITATLRSQGVVVSEKLVSQLMRELEISSVS”, the “soluble fraction (log2)” value was -0.896.

For “HMHGSSVEIPNIYGLPASEAVQLLDKADLRYEVIDSVYTTEVPKGAVYDLSPKAGSRVKAGRIIFLTLNA”, the “soluble fraction (log2)” value was -0.075.

As to “HMHGSTAVVPQIKNMPYSEASVRLGANGLAIEINDSVYDRDMPPGTVIESWPKAGAVVKQGRQVYVTVTA”, the “soluble fraction (log2)” value was 0.218.

With “HMHHGALKQALLDETARILAEEGESALSLRRLASNLGVSRTAPYNHFDNKDALLSAVAEEGFRR”, the “soluble fraction (log2)” value is -0.0708.

For “HMHIELNDTQKRILNFLSDDPNLSAVRLAEQLGISSRNVEKNIKKLKEYGILIRHGSPKNGYWEIVV”, the “soluble fraction (log2)” value was -0.2.

Take “HMHITSFTIKQADQIVGTTPVREQAVGAAKARAQQTGTPVSVIAYLDTGEEREVIIHPDGTN”: the “soluble fraction (log2)” value is -0.328.

With “HMHKLTSRQEEILQFIKDYLSEIGYPPTRSEIAQKMGFRSTNAAEEHLRALARKGAIEILPGPSRGLRLP”, the “soluble fraction (log2)” value is -0.393.

Regarding “HMHKTEIKIPSREDILAVLRQAQAPLTREQVFEHLKLTEDQIPIIEKRLNAMERDGQLMPNRKGMLLLSTK”, the “soluble fraction (log2)” value came out at 0.00265.

Take “HMHKYEYESLNHVNVGSNLKYISTHFGQPKLIKKSKYHENLNFAYYLEKKFILTLILEGDRVNAYTITG”: the “soluble fraction (log2)” value was -0.236.

“HMHLEKGEVVVPDLKGLTMRQVGELLGKLNLRYSFSGTGLAVKQFPESGQIVNQGDIIEVIF”: the “soluble fraction (log2)” value was 0.174.

Take “HMHLLPAREQVAAYLRKAILRQEIREGTILNLADTARQMGVSVTPVREALQLLAAQGLVRLRPNKGAVVMG”: the “soluble fraction (log2)” value is 0.158.

On to “HMHLNVYRDEDEAMLAFKDHLIGTHQPIRVRVEKALPDGTMGHKIVDTTIGRIVFNHNIPQD”, for which the “soluble fraction (log2)” value was 0.0727.

For the sequence “HMHLTEAPLIKITYFEADQKKSGGQYITIINHLKKINEYENLLVLENGVKINIDDIYELESV”, the “soluble fraction (log2)” value was -0.804.

For “HMHMNFGEILQTKRKEKGFTQEELAHQLLVSSKTISNWETNKTTPDIDNVIRISQLFDISLNQLLLE”, the “soluble fraction (log2)” value was -0.424.

Turning to “HMHMSKKLADSIISLRRKHGFSQEQLAEKIGVTRQAISNWERGTATPDVETLNLIAKLFDMDLLAIINGE”, the “soluble fraction (log2)” value was -0.514.

For the sequence “HMHNLYAPTQKEVDHARRVVEAAEAAAREGLGVVSLNGKMVDGPVIDRARLVLSRAELSGIRE”, the “soluble fraction (log2)” value was found to be 0.274.

“HMHNNTITLNKKTYVYTASGKKMSKYLGYTYINKGTTLNYYGTKNIKGKTFYYIGDHAYVNAANVGKVTN”: the “soluble fraction (log2)” value was no less than 0.43.

On to “HMHNQIGDKIRELRTRSNLTQADLGKLVGVSMQAVSKWERGGTPDIDVLLSVAKYFNISLDEMVGRT”, for which the “soluble fraction (log2)” value is -1.63.

Regarding “HMHPEITLHPVRANIYSISVKNATSMEIYSVSGQLVGIRELKEGTNTLDLTGYINGVYIVNLQNKAFKLVK”, the “soluble fraction (log2)” value is -0.465.

In the case of “HMHPELSDSQRTLIALMASGLKDEAIAVEMGVGARTVRRKVQELYELLGVRTRFQAGVAANQRGW”, the “soluble fraction (log2)” value is -0.606.

For “HMHPKDVPTRRELEVLQAVSEGLSTAEIGLRLDITENTVETFRRRLIQKFDAKNAIDLVVKAMAQGWIKV”, the “soluble fraction (log2)” value was -0.255.

With “HMHQGTIEVGSIVHIEGQKALGTILSLTQREAIVGLGALKTTIPLKRLHLATEAEARRHKKSVTPQEAV”, the “soluble fraction (log2)” value was determined as 0.284.

On to “HMHQIFAETVFEDIAFGPRNKGFNEEEVAKQVREAMAFVGLDYDTYAQRSPFQLSGGQMRRVAIAGVVA”, for which the “soluble fraction (log2)” value was -0.874.

As for “HMHQKYIITGTRDTYVVSQGETLRTIAEHVYGSRGYARYIIEHNHITHPDDIPVGLTIRLPELELNPDYR”, the “soluble fraction (log2)” value was -0.209.

On to “HMHRAKRTKAQTQSSLESIEGIGPKTRKQLLVHFGGLAEVKAASVSELQKVKGISLDKAQKIYDFFHGS”, for which the “soluble fraction (log2)” value turned out to be 0.119.

As for “HMHRNLSFEEEKEFLSAYTKQAEAGQIVDLNEMKAAYIEKVGHSIGGSQIYRMLERHGWRKVM”, the “soluble fraction (log2)” value is -0.468.

Consider “HMHSDSEIEKGYTDDGQKLSNVNGVYMTKSEMYNKGIVEKDPNTGEEVMGRNRVNPVTGELE”, for which the “soluble fraction (log2)” value turned out to be 0.204.

Regarding “HMHSDWITWWYLKDKRFDDDYSLWDRQPVHPEYFEVVKEFKAPPESNPGGLDEVKRILRTYIPDAFAP”, the “soluble fraction (log2)” value is 0.162.
